Experimental data from patent US20200270347A1 (Hoffmann-La Roche, published 2020).

What was measured:
[1] = biological target: T1, EGFRvIII-ECD avi his (human); experiment: SPR, PGLALA IgG captured with anti-PGLALA antibody, EGFRvIII-ECD avi his as analyte, 1:1 Langmuir, 25° C.
T1 construct: Extracellular domain of human EGFRvIII fused to an Avi-tag and a His-tag at the C-terminus; the entry is the whole construct; also called recombinant EGFRvIII; EGFRvIII antigen

[2] = biological target: T2, EGFRvIII expressed on the cell surface (CHO-EGFRvIII, DK-MG, U87MG-EGFRvIII cells) (human, UniProt P00533 298-1210); experiment: flow cytometry on U87MG-EGFRvIII cells, IgG PGLALA
T2 construct: The cell line of each result is named under assay; Species is stated for the U87 transfectant (human EGFRvIII protein) and the entry; also called EGFRvIII positive cells

[3] = biological target: T2, EGFRvIII expressed on the cell surface …; experiment: flow cytometry on CHO-EGFRvIII cells, IgG
[4] = biological target: T3, wild-type EGFR on MKN-45 cells (human, UniProt P00533 25-1210); experiment: flow cytometry on MKN-45 cells (wild-type EGFR)
T3 construct: MKN-45 is the wild-type EGFR line used to exclude crossreactivity; also called EGFRwt

[5] = biological target: EGFRwt ECD antigen (His-tagged, captured with anti-His) (human, UniProt P00533 25-645); experiment: SPR, ECD antigen captured with anti-His, single injection of antibody at 500 nM
[6] = biological target: T1, EGFRvIII-ECD avi his; experiment: as above
[7] = biological target: T2, EGFRvIII expressed on the cell surface …; experiment: flow cytometry on CHO-EGFRvIII cells, TCB
[8] = biological target: T4, heterodimer of cynomolgus CD3 delta and CD3 epsilon ectodomains fused to a human Fc domain with … (cynomolgus); experiment: SPR, TCB captured with anti-PGLALA antibody, CD3 antigen as analyte, 1:1 Langmuir; CD3opt; cynomolgus CD3
T4 construct: Each entry is the whole fusion chain; also called Cynomolgus CD3 epsilon stalk-Fc(knob)-Avi / Cynomolgus CD3 delta stalk-Fc(hole)-Avi

[9] = biological target: T5, heterodimer of human CD3 delta and CD3 epsilon ectodomains fused to a human Fc domain with knob-into-hole … (human); experiment: SPR, relative active concentration after stress
T5 construct: Each entry is the whole fusion chain (ectodomain, stalk, Fc, Avi-tag); also called recombinant CD3; recombinant human CD3

[10] = biological target: T5, heterodimer of human CD3 delta and CD3 …; experiment: SPR, TCB captured with anti-PGLALA antibody, CD3 antigen as analyte, 1:1 Langmuir; CD3opt; human CD3
[11] = biological target: T1, EGFRvIII-ECD avi his; experiment: SPR, TCB captured with anti-Fc antibody, EGFRvIII-ECD avi his as analyte, 1:1 fit; CD3opt
[12] = biological target: T2, EGFRvIII expressed on the cell surface …; experiment: flow cytometry on U87MG-EGFRvIII cells, fluorescently labelled anti-human Fc secondary antibody
[13] = biological target: T5, heterodimer of human CD3 delta and CD3 …; experiment: SPR, TCB captured with anti-PGLALA antibody, CD3 antigen as analyte, 1:1 Langmuir; CD3orig; human CD3
[14] = biological target: T1, EGFRvIII-ECD avi his; experiment: SPR, TCB captured with anti-Fc antibody, EGFRvIII-ECD avi his as analyte, 1:1 fit; CD3orig

B1: EGFRvIII antibody P056.021 IgG1 PGLALA (antibody, V domains shown)
VH: EVQLVQSGAEVKKPGESLKISCKGSGYSFDSYWIAWVRQMPGKGLEWMGVIHPYDSDTRYSPSFQGQVTISADKSISTAYLQWSSLKASDTAMYYCARVSRSSYAFDYWGQGTLVTVSS
VL: not shown
notes: Human IgG1 with P329G L234A L235A; also called P056.021 (parental)
Kd [1]: 35 nM | EC50 (read off the curve) [2]: ~4 nM | EC50 [3]: 16.5 nM | binding result [4]: no binding (tested: about 140 nM) | response units [5]: < 5 RU | response units [6]: > 50 RU

B2: EGFRvIII TCB P056.021 (CD3orig) (bispecific antibody, V domains shown)
VH 1: EVQLVQSGAEVKKPGESLKISCKGSGYSFDSYWIAWVRQMPGKGLEWMGVIHPYDSDTRYSPSFQGQVTISADKSISTAYLQWSSLKASDTAMYYCARVSRSSYAFDYWGQGTLVTVSS
VL 1: not shown
VH 2: not shown
VL 2: QAVVTQEPSLTVSPGGTVTLTCGSSTGAVTTSNYANWVQEKPGQAFRGLIGGTNKRAPGTPARFSGSLLGGKAALTLSGAQPEDEAEYYCALWYSNLWVFGGGTKLTVL
notes: also called parental EGFRvIII TCB P056.021; P056.021 EGFRvIII TCB with CD3orig
binding result [4]: no binding (tested: about 140 nM) | EC50 [7]: 13 nM

B3: EGFRvIII TCB CD3opt (EGFRvIII binder P063.056) (bispecific antibody, human IgG1, kappa, L234A L235A)
heavy 1: not shown
heavy 2: EVQLVQSGAEVKKPGESLKISCKGSGYSFDSYWIAWVRQMPGKGLEWMGVIHPYDSDTRYSPSFQGQVTISADKSISTAYLQWSSLKASDTAMYYCARVSRSSYAFDYWGQGTLVTVSSASTKGPSVFPLAPSSKSTSGGTAALGCLVEDYFPEPVTVSWNSGALTSGVHTFPAVLQSSGLYSLSSVVTVPSSSLGTQTYICNVNHKPSNTKVDEKVEPKSCDKTHTCPPCPAPEAAGGPSVFLFPPKPKDTLMISRTPEVTCVVVDVSHEDPEVKFNWYVDGVEVHNAKTKPREEQYNSTYRVVSVLTVLHQDWLNGKEYKCKVSNKALGAPIEKTISKAKGQPREPQVCTLPPSRDELTKNQVSLSCAVKGFYPSDIAVEWESNGQPENNYKTTPPVLDSDGSFFLVSKLTVDKSRWQQGNVFSCSVMHEALHNHYTQKSLSLSP
light 1: not shown
light 2: EVQLLESGGGLVQPGGSLRLSCAASGFQFSSYAMNWVRQAPGKGLEWVSRIRSKYNNYATYYADSVKGRFTISRDDSKNTLYLQMNSLRAEDTAVYYCVRHTTFPSSYVSYYGYWGQGTLVTVSSASVAAPSVFIFPPSDEQLKSGTASVVCLLNNFYPREAKVQWKVDNALQSGNSQESVTEQDSKDSTYSLSSTLTLSKADYEKHKVYACEVTHQGLSSPVTKSFNRGEC
notes: 2+1 IgG CrossFab, inverted, with charge modifications; also called EGFRvIII TCB P063.056 with CD3opt; 2+1 format
Kd [8]: 20 nM | binding activity to CD3 after 2 weeks at pH 7.4, 37° C., relative to 2 weeks at pH 6, -80° C. [9]: > 90% | Kd [10]: 30 nM | Kd [11]: 6 nM | binding result [12]: binds

B4: EGFRvIII TCB CD3orig (EGFRvIII binder P063.056) (bispecific antibody, human IgG1, kappa, L234A L235A)
heavy 1: not shown
heavy 2: EVQLVQSGAEVKKPGESLKISCKGSGYSFDSYWIAWVRQMPGKGLEWMGVIHPYDSDTRYSPSFQGQVTISADKSISTAYLQWSSLKASDTAMYYCARVSRSSYAFDYWGQGTLVTVSSASTKGPSVFPLAPSSKSTSGGTAALGCLVEDYFPEPVTVSWNSGALTSGVHTFPAVLQSSGLYSLSSVVTVPSSSLGTQTYICNVNHKPSNTKVDEKVEPKSCDKTHTCPPCPAPEAAGGPSVFLFPPKPKDTLMISRTPEVTCVVVDVSHEDPEVKFNWYVDGVEVHNAKTKPREEQYNSTYRVVSVLTVLHQDWLNGKEYKCKVSNKALGAPIEKTISKAKGQPREPQVCTLPPSRDELTKNQVSLSCAVKGFYPSDIAVEWESNGQPENNYKTTPPVLDSDGSFFLVSKLTVDKSRWQQGNVFSCSVMHEALHNHYTQKSLSLSP
light 1: not shown
light 2: EVQLLESGGGLVQPGGSLRLSCAASGFTFSTYAMNWVRQAPGKGLEWVSRIRSKYNNYATYYADSVKGRFTISRDDSKNTLYLQMNSLRAEDTAVYYCVRHGNFGNSYVSWFAYWGQGTLVTVSSASVAAPSVFIFPPSDEQLKSGTASVVCLLNNFYPREAKVQWKVDNALQSGNSQESVTEQDSKDSTYSLSSTLTLSKADYEKHKVYACEVTHQGLSSPVTKSFNRGEC
notes: 2+1 IgG CrossFab, inverted, with charge modifications; also called EGFRvIII TCB P063.056 with CD3orig
Kd [13]: 40 nM | EC50 (read off the curve) [12]: ~9 nM | Kd [14]: 6 nM
